Assay results published in PMC10214526, “Semisynthetic LC3 Probes for Autophagy Pathways Reveal a Noncanonical LC3 Interacting Region Motif Crucial for the Enzymatic Activity of Human ATG3” (ACS Central Science, 2023).

Molecular target: GABARAP(ΔG116)–NHNH methyl-fumarate 2 (UniProt O95166)
Assay: cross-linking assay with probe 2, Coomassie SDS-PAGE gel densitometry
Details: GABARAP probe 2 15 μM; ATG3 C1 alanine variants 15 μM; 30 min; parent: est. 1.0; read off a plot

Sequence of GABARAP(ΔG116)–NHNH methyl-fumarate 2 (O95166 1-115, stated change not applied): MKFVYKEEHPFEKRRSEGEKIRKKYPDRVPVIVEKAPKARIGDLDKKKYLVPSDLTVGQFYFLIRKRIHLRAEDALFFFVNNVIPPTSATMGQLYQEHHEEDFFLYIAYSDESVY
Sequence of ATG3 C1, Q9NT62 E95A (Q9NT62 whole entry E95A): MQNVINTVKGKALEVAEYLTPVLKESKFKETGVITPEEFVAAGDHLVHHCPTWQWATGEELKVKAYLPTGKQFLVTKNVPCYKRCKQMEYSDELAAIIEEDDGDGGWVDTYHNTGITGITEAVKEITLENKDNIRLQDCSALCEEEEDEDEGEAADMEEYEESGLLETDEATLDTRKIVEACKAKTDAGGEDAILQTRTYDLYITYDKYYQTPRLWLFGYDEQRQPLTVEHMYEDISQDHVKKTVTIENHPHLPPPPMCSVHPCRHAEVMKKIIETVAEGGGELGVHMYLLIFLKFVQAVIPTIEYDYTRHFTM
Sequence of ATG3 C1, Q9NT62 Y90A (Q9NT62 whole entry Y90A): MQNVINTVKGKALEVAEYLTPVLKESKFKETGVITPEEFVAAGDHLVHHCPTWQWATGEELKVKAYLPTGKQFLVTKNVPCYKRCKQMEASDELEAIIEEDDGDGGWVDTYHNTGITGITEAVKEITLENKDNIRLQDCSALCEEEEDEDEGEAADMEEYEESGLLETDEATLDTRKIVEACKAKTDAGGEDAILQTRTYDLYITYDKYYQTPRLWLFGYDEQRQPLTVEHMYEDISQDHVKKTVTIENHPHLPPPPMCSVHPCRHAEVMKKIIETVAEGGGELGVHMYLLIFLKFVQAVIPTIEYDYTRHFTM
Sequence of ATG3 C1, Q9NT62 D92A (Q9NT62 whole entry D92A): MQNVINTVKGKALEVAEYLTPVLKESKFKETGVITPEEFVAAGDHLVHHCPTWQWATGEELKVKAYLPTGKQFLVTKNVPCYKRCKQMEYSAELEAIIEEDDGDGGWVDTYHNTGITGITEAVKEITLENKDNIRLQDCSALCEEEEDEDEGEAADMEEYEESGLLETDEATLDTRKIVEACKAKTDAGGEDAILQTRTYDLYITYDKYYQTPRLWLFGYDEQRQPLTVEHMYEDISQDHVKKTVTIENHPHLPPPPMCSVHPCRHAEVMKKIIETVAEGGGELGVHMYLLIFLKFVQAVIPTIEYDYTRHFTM
Sequence of ATG3 C1, Q9NT62 E99A (Q9NT62 whole entry E99A): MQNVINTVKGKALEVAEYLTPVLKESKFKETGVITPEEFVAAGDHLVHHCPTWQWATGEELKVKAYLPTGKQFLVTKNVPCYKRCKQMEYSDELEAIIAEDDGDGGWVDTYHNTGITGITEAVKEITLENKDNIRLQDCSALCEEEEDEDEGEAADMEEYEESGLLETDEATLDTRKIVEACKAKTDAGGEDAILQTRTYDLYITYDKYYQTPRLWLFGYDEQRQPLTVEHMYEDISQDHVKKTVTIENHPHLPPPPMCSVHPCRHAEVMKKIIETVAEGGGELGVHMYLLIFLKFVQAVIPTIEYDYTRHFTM
Sequence of ATG3 C1, Q9NT62 T110A (Q9NT62 other isoform, or with tags, fused parts or gaps T110A): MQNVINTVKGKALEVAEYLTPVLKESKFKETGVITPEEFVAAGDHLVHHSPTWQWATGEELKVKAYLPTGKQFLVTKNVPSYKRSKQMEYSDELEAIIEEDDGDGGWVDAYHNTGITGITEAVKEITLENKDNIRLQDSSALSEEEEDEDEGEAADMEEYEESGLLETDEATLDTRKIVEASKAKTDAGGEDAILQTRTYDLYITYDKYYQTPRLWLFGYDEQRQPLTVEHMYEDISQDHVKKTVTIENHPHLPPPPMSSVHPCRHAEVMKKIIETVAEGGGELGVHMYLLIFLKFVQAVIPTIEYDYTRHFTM
Sequence of ATG3 C1, Q9NT62 D104A (Q9NT62 whole entry D104A): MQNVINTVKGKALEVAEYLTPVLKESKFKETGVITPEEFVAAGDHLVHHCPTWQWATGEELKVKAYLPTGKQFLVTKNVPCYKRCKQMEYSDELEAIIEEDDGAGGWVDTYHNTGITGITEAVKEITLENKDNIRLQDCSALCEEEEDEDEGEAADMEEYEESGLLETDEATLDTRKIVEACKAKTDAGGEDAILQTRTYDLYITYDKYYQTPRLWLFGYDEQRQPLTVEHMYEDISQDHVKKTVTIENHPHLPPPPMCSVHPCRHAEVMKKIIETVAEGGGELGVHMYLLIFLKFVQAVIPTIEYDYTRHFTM
Sequence of ATG3 C1, Q9NT62 V108A (Q9NT62 other isoform, or with tags, fused parts or gaps V108A): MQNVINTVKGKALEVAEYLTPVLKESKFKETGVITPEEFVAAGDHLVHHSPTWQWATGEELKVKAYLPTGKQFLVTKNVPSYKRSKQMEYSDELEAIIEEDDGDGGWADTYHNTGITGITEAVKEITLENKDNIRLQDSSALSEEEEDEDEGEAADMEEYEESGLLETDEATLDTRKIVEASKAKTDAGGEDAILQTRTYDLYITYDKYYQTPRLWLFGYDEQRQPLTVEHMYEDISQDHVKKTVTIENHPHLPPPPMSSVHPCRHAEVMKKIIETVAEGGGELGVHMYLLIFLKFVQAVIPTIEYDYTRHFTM
Sequence of ATG3 C1, Q9NT62 I98A (Q9NT62 whole entry I98A): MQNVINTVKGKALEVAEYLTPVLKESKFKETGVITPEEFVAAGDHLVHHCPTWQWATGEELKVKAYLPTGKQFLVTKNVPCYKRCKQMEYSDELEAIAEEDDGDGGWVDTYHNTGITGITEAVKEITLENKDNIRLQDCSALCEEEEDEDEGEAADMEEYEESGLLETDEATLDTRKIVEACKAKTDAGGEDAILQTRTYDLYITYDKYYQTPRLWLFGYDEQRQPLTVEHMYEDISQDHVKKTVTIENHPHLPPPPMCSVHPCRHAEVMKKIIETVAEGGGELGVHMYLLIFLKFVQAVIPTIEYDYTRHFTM
Sequence of ATG3 C1, Q9NT62 Y111A (Q9NT62 whole entry Y111A): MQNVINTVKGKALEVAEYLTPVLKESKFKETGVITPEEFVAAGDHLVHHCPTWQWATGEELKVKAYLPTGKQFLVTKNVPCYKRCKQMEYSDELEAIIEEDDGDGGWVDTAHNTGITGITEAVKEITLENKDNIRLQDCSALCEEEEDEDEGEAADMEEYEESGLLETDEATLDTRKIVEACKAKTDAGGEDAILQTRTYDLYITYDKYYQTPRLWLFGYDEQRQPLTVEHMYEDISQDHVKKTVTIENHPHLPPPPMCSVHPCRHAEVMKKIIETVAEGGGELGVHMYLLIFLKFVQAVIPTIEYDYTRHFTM
Sequence of ATG3 C1, Q9NT62 W107A (Q9NT62 whole entry W107A): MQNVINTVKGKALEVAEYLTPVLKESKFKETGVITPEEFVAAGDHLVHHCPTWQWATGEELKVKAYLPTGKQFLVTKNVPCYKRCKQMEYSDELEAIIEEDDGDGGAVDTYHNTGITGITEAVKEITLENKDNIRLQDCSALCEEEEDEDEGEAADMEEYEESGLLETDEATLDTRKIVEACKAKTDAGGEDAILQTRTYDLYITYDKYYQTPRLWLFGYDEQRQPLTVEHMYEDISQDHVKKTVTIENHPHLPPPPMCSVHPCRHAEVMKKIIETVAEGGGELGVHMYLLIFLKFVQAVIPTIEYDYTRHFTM
Sequence of ATG3 C1, Q9NT62 D109A (Q9NT62 other isoform, or with tags, fused parts or gaps D109A): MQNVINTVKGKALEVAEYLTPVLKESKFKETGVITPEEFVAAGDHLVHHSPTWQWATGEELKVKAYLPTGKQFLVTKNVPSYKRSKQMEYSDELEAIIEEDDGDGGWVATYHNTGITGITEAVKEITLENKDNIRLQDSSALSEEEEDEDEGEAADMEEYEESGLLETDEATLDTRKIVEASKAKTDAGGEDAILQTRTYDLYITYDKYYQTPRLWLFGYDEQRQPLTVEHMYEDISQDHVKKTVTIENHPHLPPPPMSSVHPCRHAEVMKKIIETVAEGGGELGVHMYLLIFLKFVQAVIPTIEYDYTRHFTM
Sequence of ATG3 C1, Q9NT62 I97A (Q9NT62 whole entry I97A): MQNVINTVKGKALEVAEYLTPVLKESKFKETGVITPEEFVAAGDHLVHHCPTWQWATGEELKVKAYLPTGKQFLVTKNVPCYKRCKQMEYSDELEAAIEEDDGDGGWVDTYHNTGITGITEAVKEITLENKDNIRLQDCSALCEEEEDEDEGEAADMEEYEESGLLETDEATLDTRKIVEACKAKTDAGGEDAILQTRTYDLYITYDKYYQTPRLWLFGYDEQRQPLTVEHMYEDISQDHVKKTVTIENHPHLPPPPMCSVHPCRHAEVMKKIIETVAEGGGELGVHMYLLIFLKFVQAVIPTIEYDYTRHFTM
Sequence of ATG3 C1, Q9NT62 D102A (Q9NT62 whole entry D102A): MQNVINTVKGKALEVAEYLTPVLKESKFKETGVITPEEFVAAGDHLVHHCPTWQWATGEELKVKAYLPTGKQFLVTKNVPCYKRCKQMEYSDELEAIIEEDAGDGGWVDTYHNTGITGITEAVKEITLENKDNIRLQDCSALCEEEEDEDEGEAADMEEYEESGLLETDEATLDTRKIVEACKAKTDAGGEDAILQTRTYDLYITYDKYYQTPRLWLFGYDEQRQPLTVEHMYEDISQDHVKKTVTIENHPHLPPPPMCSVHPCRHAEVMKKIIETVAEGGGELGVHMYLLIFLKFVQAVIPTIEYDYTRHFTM

Row | Substance | ratio to parent
1 | ATG3 C1, Q9NT62 D102A | 0.38
2 | ATG3 C1, Q9NT62 D104A | 0.55
3 | ATG3 C1, Q9NT62 D109A | 1.4
4 | ATG3 C1, Q9NT62 E99A | 0.52
5 | ATG3 C1, Q9NT62 T110A | 0.8
6 | ATG3 C1, Q9NT62 V108A | 0.38

The remaining lines, values ahead:

Row | ratio to parent | Substance
7 | 1 | ATG3 C1, Q9NT62 D92A
8 | 0.35 | ATG3 C1, Q9NT62 E95A
9 | 0.31 | ATG3 C1, Q9NT62 I97A
10 | 0.74 | ATG3 C1, Q9NT62 I98A
11 | 0.17 | ATG3 C1, Q9NT62 W107A
12 | 0.61 | ATG3 C1, Q9NT62 Y90A
13 | 0.69 | ATG3 C1, Q9NT62 Y111A
